Reference: article PMC8667150

Columns and labels:
[1] = Western blot of transfected AR42J cells; conditions: glycan lost; control: wild type
[2] = immunofluorescence, anti-myc and anti-calnexin, AR42J cells; conditions: glycan lost; control: wild type

B1: somatostatin receptor type 2 (SSTR2): N9Q (protein)
parent chain: MELTSEQFNGSQVWIPSPFDLNGSLGPSNGSNQTEPYYDMTSNAVLTFIYFVVCVVGLCGNTLVIYVILRYAKMKTITNIYILNLAIADELFMLGLPFLAMQVALVHWPFGKAICRVVMTVDGINQFTSIFCLTVMSIDRYLAVVHPIKSAKWRRPRTAKMINVAVWGVSLLVILPIMIYAGLRSNQWGRSSCTINWPGESGAWYTGFIIYAFILGFLVPLTIICLCYLFIIIKVKSSGIRVGSSKRKKSEKKVTRMVSIVVAVFIFCWLPFYIFNVSSVSVAISPTPALKGMFDFVVILTYANSCANPILYAFLSDNFKKSFQNVLCLVKVSGAEDGERSDSKQDKSRLNETTETQRTLLNGDLQTSI
- expression_or_secretion [1]: decreases
- localisation_or_trafficking [2]: changes
